B1: LINE1-mini (parent)
chain: GGCAGAGCUCAACACAGCGUGGCAAAGUGGCUGUGGCUAGACUGCC

Variants of: B1
Test: self-cleavage, relative activity (ratio to wild type); higher = more cleavage; in vitro, sequencing; the parent is a self-cleaving ribozyme

Variant	self-cleavage
GGCAGAGCUCAACACAGCGUGGCAAAGUGCCUGUGGCUAGACUGGC	0.21
GGCAGAGCUCAACACAGCGUGGCAAAGUGCCUGUGGCUAGAGUGCC	0.04
GGCAGAGCUCAACACAGCGUGGCAAAGUGCCUGUGGCUAGAAUGCC	0.12
GGCAGAGCUCAACACAGCGUGGCAAAGUGCCUGUGGCUAGAUUGCC	0.18
GGCAGAGCUCAACACAGCGUGGCAAAGUGCCUGUCGCUAGACUGCC	0.09
GGCAGAGCUCAACACAGCGUGGCAAAGUGCCUGUUGCUAGACUGCC	0.19
GGCAGAGCUCAACACAGCGUGGCAAAGUGCCUGUAGCUAGACUGCC	0.09
GGCAGAGCUCAACACAGCGUGGCAAAGUUGCUGUGGCUAGACCGCC	0.08
GGCAGAGCUCAACACAGCGUGGCAAAGUUGCUGUGGCUAGACAGCC	0.2
GGCAGAGCUCAACACAGCGUGGCAAAGUUGCUGUGGCUAGACGGCC	0
GGCAGAGCUCAACACAGCGUGGCAAAGUGUCUGUGGCUAGCCUGCC	0.06
GGCAGAGCUCAACACAGCGUGGCAAAGUGUCUGUGGCUAGUCUGCC	0.64
GGCAGAGCUCAACACAGCGUGGCAAAGUGUCUGUGGCUAGGCUGCC	0.35
GGCAGAGCUCAACACAGCGUGGCAAAGUGCCUGUGGCUAAACUGCC	0.13
GGCAGAGCUCAACACAGCGUGGCAAAGUGCCUGUGGCUAUACUGCC	0.16
GGCAGAGCUCAACACAGCGUGGCAAAGUGCCUGUGGCUACACUGCC	0.18
GGCAGAGCUCAACACAGCGUGGCAAAGUGACUGCGGCUAGACUGCC	0.12
GGCAGAGCUCAACACAGCGUGGCAAAGUGACUGGGGCUAGACUGCC	0.11
GGCAGAGCUCAACACAGCGUGGCAAAGUGACUGAGGCUAGACUGCC	0.05

Variant	self-cleavage
GGCAGAGCUCAACACAGCGUGGCAAAGUGCCUGUGGCCAGACUGCC	0.49
GGCAGAGCUCAACACAGCGUGGCAAAGUGCCUGUGGCGAGACUGCC	0.03
GGCAGAGCUCAACACAGCGUGGCAAAGUGCCUGUGGCAAGACUGCC	0.75
GGCAGAGCUCAACACAGCGUGGCAAAGUGACUGUGGCUUGACUGCC	1.69
GGCAGAGCUCAACACAGCGUGGCAAAGUGACUGUGGCUCGACUGCC	0.4
GGCAGAGCUCAACACAGCGUGGCAAAGUGACUGUGGCUGGACUGCC	0.11
GGCAGAGCUCAACACAGCGUGGCAAAGUGCCCGUGGCUAGACUGCC	0.09
GGCAGAGCUCAACACAGCGUGGCAAAGUGCCAGUGGCUAGACUGCC	0.26
GGCAGAGCUCAACACAGCGUGGCAAAGUGCCGGUGGCUAGACUGCC	0.3
GGCAGAGCUCAACACAGCGUGGCAAAGUGACUGUGGUUAGACUGCC	0.11
GGCAGAGCUCAACACAGCGUGGCAAAGUGACUGUGGAUAGACUGCC	0.05
GGCAGAGCUCAACACAGCGUGGCAAAGUGACUGUGGGUAGACUGCC	0.06
GGCAGAGCUCAACACAGCGUGGCAAAGUGCGUGUGGCUAGACUGCC	0.44
GGCAGAGCUCAACACAGCGUGGCAAAGUGCAUGUGGCUAGACUGCC	0.75
GGCAGAGCUCAACACAGCGUGGCAAAGUGCUUGUGGCUAGACUGCC	1.32
GGCAGAGCUCAACACAGCGUGGCAAAGUGCCUGUGGCUAGUCUGCC	0.73
GGCAGAGCUCAACACAGCGUGGCAAAGUGCCUGUGGCUAGCCUGCC	0.05
GGCAGAGCUCAACACAGCGUGGCAAAGUGCCUGUGGCUAGGCUGCC	0.21
GGCAGAGCUCAACACAGCGUGGCAAAGUGCCUGUGGCUAGACAGCC	0.06

Variant	self-cleavage
GGCAGAGCUCAACACAGCGUGGCAAAGUGCCUGUGGCUAGACGGCC	0.02
GGCAGAGCUCAACACAGCGUGGCAAAGUGCCUGUGGCUAGACCGCC	0.25
GGCAGAGCUCAACACAGCGUGGCAAAGUGACAGUGGCUAGACUGCC	0.13
GGCAGAGCUCAACACAGCGUGGCAAAGUGACCGUGGCUAGACUGCC	0.21
GGCAGAGCUCAACACAGCGUGGCAAAGUGACGGUGGCUAGACUGCC	0.41
GGCAGAGCUCAACACAGCGUGGCAAAGUGCCUAUGGCUAGACUGCC	0.06
GGCAGAGCUCAACACAGCGUGGCAAAGUGCCUCUGGCUAGACUGCC	0.03
GGCAGAGCUCAACACAGCGUGGCAAAGUGCCUUUGGCUAGACUGCC	0.07
GGCAGAGCUCAACACAGCGUGGCAAAGUUGCUGUGGCCAGACUGCC	0.47
GGCAGAGCUCAACACAGCGUGGCAAAGUUGCUGUGGCGAGACUGCC	0.02
GGCAGAGCUCAACACAGCGUGGCAAAGUGACUGUGGCUAGAAUGCC	0.14
GGCAGAGCUCAACACAGCGUGGCAAAGUGACUGUGGCUAGAUUGCC	0.6
GGCAGAGCUCAACACAGCGUGGCAAAGUGACUGUGGCUAGAGUGCC	0.05
GGCAGAGCUCAACACAGCGUGGCAAAGUGACUGUGGCUAGACCGCC	0.22
GGCAGAGCUCAACACAGCGUGGCAAAGUGACUGUGGCUAGACAGCC	0.12
GGCAGAGCUCAACACAGCGUGGCAAAGUGACUGUGGCUAGACUGCG	1.5
GGCAGAGCUCAACACAGCGUGGCAAAGUGACUGUGGCUAGACUGCA	1.15
GGCAGAGCUCAACACAGCGUGGCAAAGUGACUGUGGCUAGACUGCU	1.33
